The record followed here is publication doi:10.1101/421420.

Assay [1] has as its target PmScsCΔLinker (Proteus mirabilis). Kind of assay: crystal structure.
Assay [2] has the same target. Briefly: SAXS.
Assay [3] has as its target Proteus mirabilis suppressor of copper sensitivity protein C (PmScsC) (Proteus mirabilis). Kind of assay: SAXS.

Take PmScsCΔLinker (enzyme): in assay [1], the stoichiometry N was 3. In assay [2], this substance gave an equilibrium dissociation constant (Kd) of 200 µM, a percent dimer at 0.1 mg/mL of 3%, a percent dimer at 10 mg/ml of 48% and a percent monomer at 0.1 mg/mL of 97%. In assay [2], this substance showed a percent monomer at 10 mg/ml of 40% and a percent trimer at 10 mg/ml of 12%.

In assay [3], “Proteus mirabilis suppressor of copper sensitivity protein C (PmScsC) (enzyme)” returned a percent present as monomer at 0.1 mg/mL of 1% and a stoichiometry N of 3.

As usually defined, the stoichiometry N is a count of units in the complex or per binding partner. The Kd is the equilibrium constant for the complex coming apart. Low readings indicate tighter binding, high ones weaker binding.
